Data reported in publication PMC12644734.

Biological target: T1, SARS-CoV M protein (SARS-CoV), P59596
T1 chain: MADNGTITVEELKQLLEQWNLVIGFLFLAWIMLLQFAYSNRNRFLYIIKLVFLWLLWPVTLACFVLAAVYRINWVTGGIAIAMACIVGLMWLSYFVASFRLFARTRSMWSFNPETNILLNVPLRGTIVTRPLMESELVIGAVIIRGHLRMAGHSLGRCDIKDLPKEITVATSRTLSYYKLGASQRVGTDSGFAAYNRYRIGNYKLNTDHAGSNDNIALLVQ
Experiment: cryo-EM structure
Settings: remark: other sources report otherwise

B1: SARS-CoV M protein, P59596 1-221 (natural protein)
chain: MADNGTITVEELKQLLEQWNLVIGFLFLAWIMLLQFAYSNRNRFLYIIKLVFLWLLWPVTLACFVLAAVYRINWVTGGIAIAMACIVGLMWLSYFVASFRLFARTRSMWSFNPETNILLNVPLRGTIVTRPLMESELVIGAVIIRGHLRMAGHSLGRCDIKDLPKEITVATSRTLSYYKLGASQRVGTDSGFAAYNRYRIGNYKLNTDHAGSNDNIALLVQ
  stoichiometry N: 2
